{"source": "patent US20200207830A1", "about": "“TREM2 MUTANTS RESISTANT TO SHEDDASE CLEAVAGE” (NOVARTIS AG, priority 2017, published 2020)", "key": {"[1]": {"target": "T1, TREM2 stalk region derived synthetic peptide, Peptide 3", "T1 chain": "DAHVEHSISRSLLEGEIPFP"}, "[2]": {"target": "T2, TREM2 stalk region derived synthetic peptide, Peptide 4 (H-SI cleavage site replaced with IPP)", "T2 chain": "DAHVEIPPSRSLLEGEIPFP"}, "[3]": {"target": "T3, TREM2 stalk region derived synthetic peptide, Peptide 5 (H-SI cleavage site replaced with IPD)", "T3 chain": "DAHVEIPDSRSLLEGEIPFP"}, "[4]": {"target": "T4, TREM2 stalk region derived synthetic peptide, Peptide 6 (H-SI cleavage site replaced with IDP)", "T4 chain": "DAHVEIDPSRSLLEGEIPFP"}, "BWZ-lacZ-mDAP12 cells": {"test_system": "BWZ-lacZ-mDAP12 cells", "assay": "Reporter gene assay in BWZ cells", "format": "cell-based", "conditions": "stably expressed with mDAP12, activating anti-TREM2 mAb vs isotype control, 16 h, compared with BWZ-TREM2-WT cells", "protocol": "BWZ thymoma reporter cells, which express lacZ under control of the promoter for nuclear factor of activated T cells (NFAT, Hsieh et al, Journal of Neurochemistry 109, 1144-1156, 2009) were transfected to co-express mDAP12 and WT hTREM2 or T2double TREM2. Cells were seeded in RPMI without phenol red supplemented with 2% FBS and 1% non-essential amino acids on high binding microtiter plates (Greiner) pre-coated with rat anti-mouse/human TREM2 mAb (R&D, MAB17291) or isotype control. Cell culture was continued for 16 h. Reporter gene activity was assessed with the Beta-glo assay system (Promega) according to the manufacturer's recommendations using an Envision 2104 multilabel reader (Perkin Elmer).\nNext it was tested whether the T2-double-TREM2 construct retained functionality. To this end this mutant was stably transfected into BWZ cells that already expressed mouse DAP12 and a beta-Gal reporter driven by NFAT (Hsieh, Journal of Neurochemistry 109, 1144-1156, 2009). mDAP12 expressed without TREM2 in this cell lines represents background reporter gene activity (RGA) in this system. […] Thus, the T2-double-TREM2 construct retained TREM2 functions."}}}
{"molecule": "recombinant ADAM10 (protein) TTSAEKNTCQLYIQTDHLFFKYYGTREAVIAQISSHVKAIDTIYQTTDFSGIRNISFMVKRIRINTTADEKDPTNPFRFPNIGVEKFLELNSEQNHDDYCLAYVFTDRDFDDGVLGLAWVGAPSGSSGGICEKSKLYSDGKKKSLNTGIITVQNYGSHVPPKVSHITFAHEVGHNFGSPHDSGTECTPGESKNLGQKENGNYIMYARATSGDKLNNNKFSLCSIRNISQVLEKKRNNCFVESGQPICGNGMVEQGEECDCGYSDQCKDECCFDANQPEGRKCKLKPGKQCSPSQGPCCTAQCAFKSKSEKCRDDSDCAREGICNGFTALCPASDPKPNFTDCNRHTQVCINGQCAGSICEKYGLEECTCASSDGKDDKELCHVCCMKKMDPSTCASTGSVQWSRHFSGRTITLQPGSPCNDFRGYCDVFMRCRLVDADGPLARLKKAIFSPELYENIAE", "values": [{"measurement": "in vitro cleavage of peptide by ADAM10, HPLC", "setting": "[1]", "value": "The same analysis was carried out with ADAM10, and a very similar cleavage pattern was obtained (data not shown)"}, {"measurement": "in vitro cleavage of peptide by ADAM10", "setting": "[2]", "value": "Peptide 4, with its IPP replacement for the H-SI cleavage site, appeared to be cleavage resistant in vitro"}, {"measurement": "in vitro cleavage of peptide by ADAM10", "setting": "[3]", "value": "Peptides 5 and 6 were slowly cleaved by ADAM10 (data not shown)"}, {"measurement": "in vitro cleavage of peptide by ADAM10", "setting": "[4]", "value": "Peptides 5 and 6 were slowly cleaved by ADAM10 (data not shown)"}]}
{"molecule": "T2-double: human TREM2 mutant combining T2-YGG and T2-WFR mutations; SEQ ID NO: 48 (protein) MEPLRLLILLFVTELSGAHNTTVFQGVAGQSLQVSCPYDSMKHWGRRKAWCRQLGEKGPCQRVVSTHNLWLLSFLRRWNGSTAITDDTLGGTLTITLRNLQPHDAGLYQCQSLHGSEADTLRKVLVEVLADPLDHRDAGDLWFPGESESFEDAHVYGGWGGWGPEGEIWFRWTSILLLLACIFLIKILAASALWAAAWHGQKPGTHPPSELDCGHDPGYQLQTLPGLRDT", "values": [{"measurement": "Reporter gene activity (RGA) after TREM2 activation", "setting": "BWZ-lacZ-mDAP12 cells", "value": "comparable activity"}]}
